Reference: PMC6004067

Legend:
[1] = target: SNAP complex (SNAPc) immobilized on Strep-Tactin beads, Q5SXM2;Q92966;Q13487;Q16533;O75971; assay: pull-down on immobilized SNAPc, immunoblot quantification; details: chain shown with the change
[2] = target: SNAP complex (SNAPc), Q5SXM2;Q92966;Q13487;Q16533;O75971; assay: Flag-bead pull-down, immunoblot quantification; details: chain shown with the change

B1: TFIIB, full-length human, Flag- and His-tagged, Q00403 V245A; P246A; G247A; R248A; S249A (protein)
chain: MASTSRLDALPRVTCPNHPDAILVEDYRAGDMICPECGLVVGDRVIDVGSEWRTFSNDKATKDPSRVGDSQNPLLSDGDLSTMIGKGTGAASFDEFGNSKYQNRRTMSSSDRAMMNAFKEITTMADRINLPRNIVDRTNNLFKQVYEQKSLKGRANDAIASACLYIACRQEGVPRTFKEICAVSRISKKEIGRCFKLILKALETSVDLITTGDFMSRFCSNLCLPKQVQMAATHIARKAVELDLAAAAAPISVAAAAIYMASQASAEKRTQKEIGDIAGVADVTIRQSYRLIYPRAPDLFPTDFKFDTPVDKLPQL
ratio to parent [1]: 0.57

B2: TFIIB, full-length human, Flag- and His-tagged, Q00403 R169E; K188E (protein)
chain: MASTSRLDALPRVTCPNHPDAILVEDYRAGDMICPECGLVVGDRVIDVGSEWRTFSNDKATKDPSRVGDSQNPLLSDGDLSTMIGKGTGAASFDEFGNSKYQNRRTMSSSDRAMMNAFKEITTMADRINLPRNIVDRTNNLFKQVYEQKSLKGRANDAIASACLYIACEQEGVPRTFKEICAVSRISEKEIGRCFKLILKALETSVDLITTGDFMSRFCSNLCLPKQVQMAATHIARKAVELDLVPGRSPISVAAAAIYMASQASAEKRTQKEIGDIAGVADVTIRQSYRLIYPRAPDLFPTDFKFDTPVDKLPQL
ratio to parent [2]: 0.13

B3: TFIIB, full-length human, Flag- and His-tagged, Q00403 R185A; K188A; K189A (protein)
chain: MASTSRLDALPRVTCPNHPDAILVEDYRAGDMICPECGLVVGDRVIDVGSEWRTFSNDKATKDPSRVGDSQNPLLSDGDLSTMIGKGTGAASFDEFGNSKYQNRRTMSSSDRAMMNAFKEITTMADRINLPRNIVDRTNNLFKQVYEQKSLKGRANDAIASACLYIACRQEGVPRTFKEICAVSAISAAEIGRCFKLILKALETSVDLITTGDFMSRFCSNLCLPKQVQMAATHIARKAVELDLVPGRSPISVAAAAIYMASQASAEKRTQKEIGDIAGVADVTIRQSYRLIYPRAPDLFPTDFKFDTPVDKLPQL
ratio to parent [1]: 0.04

B4: TFIIB, full-length human, Flag- and His-tagged, Q00403 S205A; V206A; D207A; L208A; I209A (protein)
chain: MASTSRLDALPRVTCPNHPDAILVEDYRAGDMICPECGLVVGDRVIDVGSEWRTFSNDKATKDPSRVGDSQNPLLSDGDLSTMIGKGTGAASFDEFGNSKYQNRRTMSSSDRAMMNAFKEITTMADRINLPRNIVDRTNNLFKQVYEQKSLKGRANDAIASACLYIACRQEGVPRTFKEICAVSRISKKEIGRCFKLILKALETAAAAATTGDFMSRFCSNLCLPKQVQMAATHIARKAVELDLVPGRSPISVAAAAIYMASQASAEKRTQKEIGDIAGVADVTIRQSYRLIYPRAPDLFPTDFKFDTPVDKLPQL
ratio to parent [1]: 0.54

B5: TFIIB, full-length human, Flag- and His-tagged, Q00403 R169E (protein)
chain: MASTSRLDALPRVTCPNHPDAILVEDYRAGDMICPECGLVVGDRVIDVGSEWRTFSNDKATKDPSRVGDSQNPLLSDGDLSTMIGKGTGAASFDEFGNSKYQNRRTMSSSDRAMMNAFKEITTMADRINLPRNIVDRTNNLFKQVYEQKSLKGRANDAIASACLYIACEQEGVPRTFKEICAVSRISKKEIGRCFKLILKALETSVDLITTGDFMSRFCSNLCLPKQVQMAATHIARKAVELDLVPGRSPISVAAAAIYMASQASAEKRTQKEIGDIAGVADVTIRQSYRLIYPRAPDLFPTDFKFDTPVDKLPQL
ratio to parent [2]: 0.32
